In patent US20150276760A1 (INSERM INSTITUT NATIONAL DE LA SANTE ET DE LA RECHERCHE …, published 2015):

Experiments:
Assay in all cases: Flag/HA immunopurification of MAML1-F/H from SupT1 nuclear extracts, DMSO or GSI (500 nM, 8 hours), western blot (FIG. 2D)
[1] = molecular target: T1, PHF8 (human, UniProt Q9UPP1 1-1060, limits assumed)
T1 construct: also called endogenous PHF8; histone demethylase PHF8

[2] = molecular target: LSD1 (human, UniProt O60341 1-852)
[3] = molecular target: T2, BRG1 (human, UniProt P51532 1-1647)
T2 construct: also called endogenous BRG1; PBAF subunit BRG1

[4] = molecular target: T3, PB1 (human, UniProt Q86U86 1-1689, limits assumed)
T3 construct: also called PBAF subunit PB1

[5] = molecular target: T4, AF4p12 (human, UniProt O94915 2-3013)
T4 construct: also called FRYL

Measured: binding result

T4 sequence (O94915 2-3013 limits assumed): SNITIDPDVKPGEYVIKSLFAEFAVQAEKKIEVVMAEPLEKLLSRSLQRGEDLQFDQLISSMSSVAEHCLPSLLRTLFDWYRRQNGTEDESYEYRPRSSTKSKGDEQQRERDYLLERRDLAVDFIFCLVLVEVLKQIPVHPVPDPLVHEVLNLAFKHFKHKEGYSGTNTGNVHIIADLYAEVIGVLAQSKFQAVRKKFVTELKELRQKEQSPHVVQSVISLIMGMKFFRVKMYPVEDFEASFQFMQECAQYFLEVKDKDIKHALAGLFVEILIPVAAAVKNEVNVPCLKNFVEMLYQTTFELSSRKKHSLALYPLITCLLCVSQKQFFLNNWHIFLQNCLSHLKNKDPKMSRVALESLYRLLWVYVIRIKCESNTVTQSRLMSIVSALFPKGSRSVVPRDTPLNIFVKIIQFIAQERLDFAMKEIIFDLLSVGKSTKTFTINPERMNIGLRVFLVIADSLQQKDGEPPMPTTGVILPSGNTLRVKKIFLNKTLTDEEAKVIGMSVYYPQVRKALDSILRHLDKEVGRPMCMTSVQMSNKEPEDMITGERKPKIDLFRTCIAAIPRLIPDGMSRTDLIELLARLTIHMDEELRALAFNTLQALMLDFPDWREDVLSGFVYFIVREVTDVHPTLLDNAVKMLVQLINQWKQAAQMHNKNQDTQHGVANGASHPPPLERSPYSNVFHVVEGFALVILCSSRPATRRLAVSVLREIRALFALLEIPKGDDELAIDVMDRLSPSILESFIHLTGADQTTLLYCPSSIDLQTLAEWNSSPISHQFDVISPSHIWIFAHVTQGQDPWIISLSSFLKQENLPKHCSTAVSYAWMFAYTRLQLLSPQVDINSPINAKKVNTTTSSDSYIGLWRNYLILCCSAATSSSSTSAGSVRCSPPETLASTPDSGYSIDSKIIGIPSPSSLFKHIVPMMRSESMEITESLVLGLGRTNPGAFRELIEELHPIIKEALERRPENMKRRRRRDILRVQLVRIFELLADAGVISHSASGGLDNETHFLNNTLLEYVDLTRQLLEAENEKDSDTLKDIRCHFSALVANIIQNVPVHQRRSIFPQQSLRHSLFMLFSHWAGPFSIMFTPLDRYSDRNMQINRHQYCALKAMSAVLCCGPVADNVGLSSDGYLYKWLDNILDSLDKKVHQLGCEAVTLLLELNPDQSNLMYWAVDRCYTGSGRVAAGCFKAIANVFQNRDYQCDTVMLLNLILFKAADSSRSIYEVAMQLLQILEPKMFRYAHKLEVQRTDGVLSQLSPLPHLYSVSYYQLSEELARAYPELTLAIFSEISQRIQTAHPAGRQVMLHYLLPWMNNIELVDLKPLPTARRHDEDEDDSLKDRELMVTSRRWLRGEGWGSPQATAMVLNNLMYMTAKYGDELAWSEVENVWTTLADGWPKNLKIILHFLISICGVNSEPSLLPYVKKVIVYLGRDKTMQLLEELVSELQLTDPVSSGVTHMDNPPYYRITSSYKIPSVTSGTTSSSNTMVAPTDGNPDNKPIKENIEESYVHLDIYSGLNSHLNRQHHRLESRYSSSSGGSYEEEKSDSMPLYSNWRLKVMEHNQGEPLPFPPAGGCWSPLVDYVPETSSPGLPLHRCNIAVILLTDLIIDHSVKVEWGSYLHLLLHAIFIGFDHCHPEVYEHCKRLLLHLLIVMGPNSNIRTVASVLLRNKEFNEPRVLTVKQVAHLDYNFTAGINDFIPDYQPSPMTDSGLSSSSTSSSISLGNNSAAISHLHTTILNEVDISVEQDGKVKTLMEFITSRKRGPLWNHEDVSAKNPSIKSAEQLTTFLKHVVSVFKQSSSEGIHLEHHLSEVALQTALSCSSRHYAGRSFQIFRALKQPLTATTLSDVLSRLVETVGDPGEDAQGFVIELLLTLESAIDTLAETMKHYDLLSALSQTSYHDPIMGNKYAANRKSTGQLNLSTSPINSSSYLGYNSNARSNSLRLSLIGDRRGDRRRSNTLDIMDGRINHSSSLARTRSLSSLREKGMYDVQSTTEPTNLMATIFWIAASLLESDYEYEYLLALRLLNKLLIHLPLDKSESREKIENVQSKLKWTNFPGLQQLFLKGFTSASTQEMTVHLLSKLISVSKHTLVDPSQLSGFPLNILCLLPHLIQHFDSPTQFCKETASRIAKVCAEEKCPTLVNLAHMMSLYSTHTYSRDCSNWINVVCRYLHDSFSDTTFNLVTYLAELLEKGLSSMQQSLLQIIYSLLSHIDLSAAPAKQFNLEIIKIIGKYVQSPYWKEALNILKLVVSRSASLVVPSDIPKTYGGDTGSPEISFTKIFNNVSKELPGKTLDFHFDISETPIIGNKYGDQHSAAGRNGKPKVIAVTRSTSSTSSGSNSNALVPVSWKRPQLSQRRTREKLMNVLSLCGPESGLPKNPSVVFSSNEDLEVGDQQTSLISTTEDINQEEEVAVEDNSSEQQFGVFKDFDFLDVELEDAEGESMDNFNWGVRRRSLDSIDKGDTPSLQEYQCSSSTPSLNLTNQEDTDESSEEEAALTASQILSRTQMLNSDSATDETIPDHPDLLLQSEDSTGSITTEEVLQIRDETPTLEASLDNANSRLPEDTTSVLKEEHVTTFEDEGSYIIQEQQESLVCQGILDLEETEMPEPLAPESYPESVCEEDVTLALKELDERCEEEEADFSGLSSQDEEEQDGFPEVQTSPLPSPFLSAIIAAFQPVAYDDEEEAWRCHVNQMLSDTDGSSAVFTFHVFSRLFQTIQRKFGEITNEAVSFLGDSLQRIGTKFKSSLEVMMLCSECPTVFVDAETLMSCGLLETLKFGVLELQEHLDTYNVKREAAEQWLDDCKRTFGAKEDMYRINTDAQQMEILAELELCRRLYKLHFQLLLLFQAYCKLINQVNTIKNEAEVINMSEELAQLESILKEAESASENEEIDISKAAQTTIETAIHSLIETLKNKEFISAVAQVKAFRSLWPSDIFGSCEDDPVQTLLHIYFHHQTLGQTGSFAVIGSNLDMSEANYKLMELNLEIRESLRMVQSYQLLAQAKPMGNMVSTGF
T1 sequence (Q9UPP1 whole entry): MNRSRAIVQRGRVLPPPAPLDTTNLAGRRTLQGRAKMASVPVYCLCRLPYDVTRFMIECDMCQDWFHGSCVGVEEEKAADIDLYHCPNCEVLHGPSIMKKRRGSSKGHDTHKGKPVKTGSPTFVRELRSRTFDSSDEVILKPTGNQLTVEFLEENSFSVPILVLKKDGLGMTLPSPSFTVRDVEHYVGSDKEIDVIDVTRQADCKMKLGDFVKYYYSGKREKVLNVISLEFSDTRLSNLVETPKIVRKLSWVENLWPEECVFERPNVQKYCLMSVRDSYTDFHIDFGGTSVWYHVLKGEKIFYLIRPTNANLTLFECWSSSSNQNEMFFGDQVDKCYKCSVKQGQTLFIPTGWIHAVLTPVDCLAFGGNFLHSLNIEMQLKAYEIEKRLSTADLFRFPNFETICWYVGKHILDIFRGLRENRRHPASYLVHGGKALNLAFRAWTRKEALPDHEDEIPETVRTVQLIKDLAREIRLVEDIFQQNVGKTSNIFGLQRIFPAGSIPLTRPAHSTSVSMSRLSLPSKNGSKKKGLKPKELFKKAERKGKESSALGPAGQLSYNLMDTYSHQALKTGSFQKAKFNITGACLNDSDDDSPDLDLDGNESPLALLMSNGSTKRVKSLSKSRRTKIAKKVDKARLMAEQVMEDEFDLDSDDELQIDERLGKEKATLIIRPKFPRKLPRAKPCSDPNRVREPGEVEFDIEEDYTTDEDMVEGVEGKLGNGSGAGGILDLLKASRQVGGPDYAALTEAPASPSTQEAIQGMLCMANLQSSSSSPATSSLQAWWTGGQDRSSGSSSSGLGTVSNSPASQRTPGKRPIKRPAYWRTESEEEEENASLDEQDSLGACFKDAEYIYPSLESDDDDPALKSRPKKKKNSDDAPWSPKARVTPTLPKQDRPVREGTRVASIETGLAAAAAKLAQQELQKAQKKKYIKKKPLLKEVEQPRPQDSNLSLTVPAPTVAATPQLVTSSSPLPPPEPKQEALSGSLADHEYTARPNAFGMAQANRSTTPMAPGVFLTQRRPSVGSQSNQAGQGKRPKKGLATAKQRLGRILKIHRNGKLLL

B1: Flag and HA-tagged MAML1 (MAML1-F/H) (other, human, UniProt Q92585 1-1016, looked up)
chain: MVLPTCPMAEFALPRHSAVMERLRRRIELCRRHHSTCEARYEAVSPERLELERQHTFALHQRCIQAKAKRAGKHRQPPAATAPAPAAPAPRLDAADGPEHGRPATHLHDTVKRNLDSATSPQNGDQQNGYGDLFPGHKKTRREAPLGVAISSNGLPPASPLGQSDKPSGADALQSSGKHSLGLDSLNKKRLADSSLHLNGGSNPSESFPLSLNKELKQEPVEDLPCMITGTVGSISQSNLMPDLNLNEQEWKELIEELNRSVPDEDMKDLFNEDFEEKKDPESSGSATQTPLAQDINIKTEFSPAAFEQEQLGSPQVRAGSAGQTFLGPSSAPVSTDSPSLGGSQTLFHTSGQPRADNPSPNLMPASAQAQNAQRALAGVVLPSQGPGGASELSSAHQLQQIAAKQKREQMLQNPQQATPAPAPGQMSTWQQTGPSHSSLDVPYPMEKPASPSSYKQDFTNSKLLMMPSVNKSSPRPGGPYLQPSHVNLLSHQPPSNLNQNSANNQGSVLDYGNTKPLSHYKADCGQGSPGSGQSKPALMAYLPQQLSHISHEQNSLFLMKPKPGNMPFRSLVPPGQEQNPSSVPVQAQATSVGTQPPAVSVASSHNSSPYLSSQQQAAVMKQHQLLLDQQKQREQQQKHLQQQQFLQRQQHLLAEQEKQQFQRHLTRPPPQYQDPTQGSFPQQVGQFTGSSAAVPGMNTLGPSNSSCPRVFPQAGNLMPMGPGHASVSSLPTNSGQQDRGVAQFPGSQNMPQSSLYGMASGITQIVAQPPPQATNGHAHIPRQTNVGQNTSVSAAYGQNSLGSSGLSQQHNKGTLNPGLTKPPVPRVSPAMGGQNSSWQHQGMPNLSGQTPGNSNVSPFTAASSFHMQQQAHLKMSSPQFSQAVPNRPMAPMSSAAAVGSLLPPVSAQQRTSAPAPAPPPTAPQQGLPGLSPAGPELGAFSQSPASQMGGRAGLHCTQAYPVRTAGQELPFAYSGQPGGSGLSSVAGHTDLIDSLLKNRTSEEWMSDLDDLLGSQ
notes: Stably expressed in SupT1; also called FLAG-HA tagged MAML1; not shown: Flag and HA tags (pOZ vector)
binds: all assays above
